Where two headings read alike, the source gives them in different places.

In assay [1] the target is T1, biotinylated recombinant cynomolgus monkey trimeric ARG2 enzyme (Avi-cynoARG2-His10) (cynomolgus monkey, UniProt P78540 23-354 (human entry), biotinylated).
T1 construct: also called cynomolgus ARG2
T1 chain: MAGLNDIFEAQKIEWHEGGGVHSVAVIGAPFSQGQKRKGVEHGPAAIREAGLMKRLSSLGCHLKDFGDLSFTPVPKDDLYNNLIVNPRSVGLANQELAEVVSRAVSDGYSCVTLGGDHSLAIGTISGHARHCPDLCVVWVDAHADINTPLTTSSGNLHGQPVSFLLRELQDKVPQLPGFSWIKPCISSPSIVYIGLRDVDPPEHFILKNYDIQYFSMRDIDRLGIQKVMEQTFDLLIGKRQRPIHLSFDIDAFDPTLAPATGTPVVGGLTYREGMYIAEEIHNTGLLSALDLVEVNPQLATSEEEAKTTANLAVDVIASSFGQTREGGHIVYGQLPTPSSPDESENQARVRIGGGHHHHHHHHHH
Description: BLI (OctetRED), biotinylated cyno ARG2 on streptavidin, Fab as analyte. The method, then:
(§1) An Octet Kinetics Buffer (PBS containing 0.01% BSA and 0.002% Tween20) is typically used as the diluent buffer for the analyte samples and as the flow buffer during the dissociation phase. The experimental data is recorded over time as shift in interference pattern (nm) over time, which is directly proportional to the optical thickness at the biosensor tip, which in turn is an approximate measure of the mass of analyte bound. The proprietary Octet Data Analysis software package can then be used to process data and fit binding models to the data sets. Returned association (kₐ, M⁻¹ s⁻¹) and dissociation (kd, s⁻¹) rate constants allow calculation of dissociation (KD, M) affinity constants.
(§2) Typically, an analyte titration range of 1.8 to 120 nM was used.

Assay [2] addresses T2, biotinylated recombinant human trimeric ARG2 enzyme (Avi-huARG2-His10) (human, UniProt P78540 23-354, biotinylated).
T2 construct: also called avi-Arg2-His10; bio-ARG2
T2 chain: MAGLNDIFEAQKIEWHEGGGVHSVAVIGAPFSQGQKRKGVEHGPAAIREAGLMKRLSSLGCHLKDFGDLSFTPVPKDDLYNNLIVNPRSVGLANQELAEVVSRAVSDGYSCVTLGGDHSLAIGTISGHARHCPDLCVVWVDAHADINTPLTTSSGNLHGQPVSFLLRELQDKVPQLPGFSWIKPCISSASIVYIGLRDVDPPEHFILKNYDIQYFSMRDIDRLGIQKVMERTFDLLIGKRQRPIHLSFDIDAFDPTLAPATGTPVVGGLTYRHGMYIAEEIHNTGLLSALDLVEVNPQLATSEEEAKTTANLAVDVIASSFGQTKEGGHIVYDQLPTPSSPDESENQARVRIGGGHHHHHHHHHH
Description: BLI (OctetRED), biotinylated ARG2 on streptavidin, Fab as analyte. The method, then: as §1, §2

Assay [3] concerns the target T3, biotinylated recombinant human trimeric ARG1 enzyme (Avi-huARG1-His10) (human, UniProt P05089 1-322, biotinylated in HTRF and streptavidin BLI assays).
T3 construct: also called Human ARG1; recombinant ARG1
T3 sequence: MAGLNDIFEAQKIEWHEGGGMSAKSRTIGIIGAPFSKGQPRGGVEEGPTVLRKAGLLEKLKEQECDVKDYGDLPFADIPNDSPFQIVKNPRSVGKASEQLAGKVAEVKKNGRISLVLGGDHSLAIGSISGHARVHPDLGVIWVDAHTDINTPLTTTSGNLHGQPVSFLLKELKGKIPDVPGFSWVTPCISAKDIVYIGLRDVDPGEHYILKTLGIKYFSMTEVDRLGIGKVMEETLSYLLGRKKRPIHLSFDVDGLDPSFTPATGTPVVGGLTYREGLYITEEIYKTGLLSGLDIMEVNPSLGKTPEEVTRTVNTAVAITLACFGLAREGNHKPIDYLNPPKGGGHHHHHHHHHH
Description: BLI (OctetRED), His-tagged ligand on anti-His surface. On the procedure: The binding of affinity-matured antibodies to human ARG1 was also tested on the OctetRED system using a screening assay which stably captures […] as the ligand on an anti-His surface. The Fabs were typically tested in an analyte range of 1.8 to 120 nM, with an association time of 5 minutes and a dissociation time of 10 minutes. Sensors were regenerated using 10 mM glycine pH 1.5 after each cycle.

Assay [4] concerns the target T3, biotinylated recombinant human trimeric …. Described as above. The source holds these as a separate data set.
In assay [5] the target is T2, biotinylated recombinant human trimeric …. Description: BLI (OctetRED) extended assay, bio-ARG2 on streptavidin, Fab as analyte, 1:1 fit. The method, then:
The affinities of the second-generation antibodies to human ARG2 were measured on the OctetRED system. A screening assay which stably captures His-tagged ARG2 as the ligand on an anti-His surface was utilised to screen the second-generation candidates as Fabs at an analyte range of 1.8 to 120 nM, with an association time of 5 minutes and a dissociation time of 10 minutes. Sensors were regenerated using 10 mM glycine pH 1.5 after each cycle. Based on this assay, six candidates with estimated affinities in the sub-nanomolar range were identified, and they were further profiled using an extended assay which is more suitable for antibodies of high affinities. In the extended assay, the association and dissociation times were extended to 10 and 40 minutes respectively, using a lower Fab analyte titration range of 0.47 to 30 nM, on a streptavidin surface which captures bio-ARG2 as the ligand. The sensorgrams were reference subtracted and fitted to the 1:1 binding model to estimate their binding affinities using the Octet analysis software.

B1: C0021061 Fab (Fab, V domains shown)
VH: EVQLLESGGGLVQPGGSLRLSCAASGFTFSSYAMSWVRQAPGKGLEWVSAKPTDAGSTYYADSVKGRFTISRDNSKNTLYLQMNSLRAEDTAVYYCARLRADLGLYMDLWGRGTLVTVSS
VL: QSVLTQPPSVSAAPGQKVTISCSGSSSNIGNHYVSWYQQLPGTAPKLLIYNTVYPKSGIPDRFSGSKSGTSATLGITGLQTGDEADYYCGTWDSSLSALVFGGGTKLTVL
notes: Human Fab
As a reminder, the Kd is the free concentration of one partner at which half of the binding sites on the other are occupied at equilibrium, for simple one-to-one binding. By koff is commonly meant the rate constant with which the complex falls apart. By kon is commonly meant the second-order rate constant of association. For the molecule B1, in assay [1], the Kd amounted to 0.953 nM, the koff came to 0.000296 s⁻¹ and the kon was 310000 M⁻¹ s⁻¹. In assay [2], the Kd came to 1.3 nM, the koff came to 0.000351 s⁻¹ and the kon was 271000 M⁻¹ s⁻¹. In assay [3], the binding result is listed as “no binding (tested: 1.8 to 120 nM Fab)”.

B2: C0021022 Fab (Fab, V domains shown)
VH: EVQLLESGGGLVQPGGSLRLSCAASGFTFSSYAMSWVRQAPGKGPEWVSAISGFSPYYADSVKGRFTISRDNSKNTLYLQMNSLRAEDTAVYYCARLRADLGLYMDLWGRGTLVTVSS
VL: QSVLTQPPSVSAAPGQKVTISCSGSSSNIGNHYVSWYQQLPGTAPKLLIYDNSERPSGIPDRFSGSKSGTSATLGITGLQTGDEADYYCGTWDSSLSALVFGGGTKLTVL
notes: Human Fab
In the case of B2, in assay [1], the Kd was found to be 1.66 nM, the koff came to 0.00117 s⁻¹ and the kon worked out at 706000 M⁻¹ s⁻¹. Besides, in assay [2], the Kd worked out at 2.73 nM, the koff worked out at 0.00112 s⁻¹ and the kon came to 412000 M⁻¹ s⁻¹. In assay [3], the binding result is given as “no binding (tested: 1.8 to 120 nM Fab)”.

B3: C0021128 Fab (Fab, V domains shown)
VH: EVQLLESGGGLVQPGGSLRLSCAASGFTFQYEVAAWVRQAPGKGLEWVSAISGPIPKGYYADSVKGRFTISRDNSKNTLYLQMNSLRAEDTAVYYCARLRADLGLYMDLWGRGTLVTVSS
VL: QSVLTQPPSVSAAPGQKVTISCSGSSSNIGNHYVSWYQQLPGTAPKLLIYDNAIESSGIPDRFSGSKSGTSATLGITGLQTGDGADYYCGTWDSNLSALVFGGGTKLTVL
notes: Human Fab
For the molecule B3, in assay [1], the Kd amounted to 1.77 nM, the koff came out at 0.000771 s⁻¹ and the kon worked out at 437000 M⁻¹ s⁻¹. Besides, in assay [2], the Kd stood at 2.53 nM, the koff was 0.000674 s⁻¹ and the kon came out at 266000 M⁻¹ s⁻¹. Moreover, the binding result in assay [3] is “no binding (tested: 1.8 to 120 nM Fab)”.

B4: C0021139 Fab (Fab, V domains shown)
VH: EVQLLESGGGLVQPGGSLRLSCAASGFTFQYDYQVWVRQAPGKGLEWVSAISGSGGSTYYADSVKGRFTISRDNSKNTLYLQMNSLRAEDTAVYYCARLRADLGLYMDLWGRGTLVTVSS
VL: QSVLTQPPSVSAAPGQKVTISCSGSSSNIGNHYVSWYQQLPGTAPKLLIYDNSERTSGIPDRFSGSKSGTSATLGITGLQTGDEADYYCGTWDELTSNLVFGGGTKLTVL
notes: Human Fab; also called LO C0021139 Fab
Regarding B4, in assay [1], the Kd was found to be 2.63 nM, the off-rate (koff) came out at 0.000724 s⁻¹ and the kon came out at 275000 M⁻¹ s⁻¹. Also, in assay [2], the Kd was determined as 4.41 nM, the koff worked out at 0.000871 s⁻¹ and the kon came to 198000 M⁻¹ s⁻¹. In addition, the binding result in assay [3] is on record as “no binding (tested: 1.8 to 120 nM Fab)”.

B5: C0021133 Fab (Fab, V domains shown)
VH: EVQLLESGGGLVQPGGSLRLSCAASGFTFRYDHHVWVRQAPGKGLEWVSAISGSGGSTYYADSVKGRFTISRDNSKNTLYLQMNSLRAEDTAVYYCARLRADLGLYMDLWGRGTLVTVSS
VL: QSVLTQPPSVSAAPGQKVTVSCSGSSSNIGNHYVSWYQQLPGTAPKLLIYDTTVLSSGIPDRFSGSKSGTSATLGITGLQTGDEADYYCGTWDELTSNLVFGGGTKLTVL
notes: Human Fab
Regarding B5, in assay [1], the Kd turned out to be 1.67 nM, the koff worked out at 0.000549 s⁻¹ and the kon is 328000 M⁻¹ s⁻¹. For the same molecule, in assay [2], the Kd was 2.05 nM, the koff was determined as 0.000449 s⁻¹ and the kon was determined as 219000 M⁻¹ s⁻¹. Further, the binding result in assay [3] is on record as “no binding (tested: 1.8 to 120 nM Fab)”.

B6: C0021065 Fab (Fab, V domains shown)
VH: EVQLLESGGGLVQPGGSLRLSCAASGFTFSSYAMSWVRQAPGKGPEWVSAISGFSPYYADSVKGRFTISRDNSRNTLYLQMNSLRAEDTAVYYCARLRADLGLYMDLWGRGTLVTVSS
VL: QSVLTQPPSVSAAPGQKVTISCSGSSSNIGNHYVSWYQQLPGTAPKLLIYDTDHMASGIPDRFSGSKSGTSATLGITGLQTGDEADYYCGTWDSSLSALVFGGGTKLTVL
notes: Human Fab
For B6, in assay [1], the Kd was found to be 1.27 nM, the koff amounted to 0.000782 s⁻¹ and the kon is 617000 M⁻¹ s⁻¹. Further, in assay [2], the Kd stood at 1.62 nM, the koff is 0.000665 s⁻¹ and the kon turned out to be 409000 M⁻¹ s⁻¹. Further, the binding result in assay [3] is listed as “no binding (tested: 1.8 to 120 nM Fab)”.

B7: C0021144 Fab (Fab, V domains shown)
VH: EVQLLESGGGLVQPGGSLRLSCAASGFTFRYDYHVWVRQAPGKGLEWVSAISGSGGSTYYADSVKGRFTISRDNSKNTLYLQMNSLRAEDTAVYYCARLRADLGLYMDLWGRGTLVTVSS
VL: QSVLTQPPSVSAAPGQKVTVSCSGSSSNIGNHHVSWYQQLPGTAPKLLIYDTTVLSSGVPDRFSGSKSGTSATLGITGLQTGDEADYYCGTWDELTSNLVFGGGTKLTVL
notes: Human Fab
In the case of B7, the binding result in assay [4] is recorded as “no binding (tested: up to 120 nM Fab)”. Besides, in assay [5], the Kd was determined as 0.338 nM, the koff is 6.59e-05 s⁻¹ and the kon came to 195000 M⁻¹ s⁻¹.

B8: C0021092 Fab (Fab, V domains shown)
VH: EVQLLESGGGLVQPGGSLRLSCAASGFTFSRYAMSWVRQAPGKGLEWVSAHTHSPGSTYYADSVKGRFTISRDNSKNTLYLQMNSLRAEDTAVYYCARLRADLGLYMDLWGRGTLVTVSS
VL: QSVLTQPPSVSAAPGQKVTISCSGSSSNIGNHYVSWYQQLPGTAPKLLIYNSVARPSGIPDRFSGSKSGTSATLGITGLQTGDEADYYCGTWDSSLSALVFGGGTKLTVL
notes: Human Fab
For the molecule B8, in assay [1], the Kd amounted to 2.05 nM, the koff was determined as 0.000726 s⁻¹ and the kon was 354000 M⁻¹ s⁻¹. In assay [2], the Kd turned out to be 2.69 nM, the koff was 0.000755 s⁻¹ and the kon was 280000 M⁻¹ s⁻¹. In addition, the binding result in assay [3] is recorded as “no binding (tested: 1.8 to 120 nM Fab)”.

For the origin of these results see patent US20220403048A1 (CANCER RESEARCH TECHNOLOGY, published 2022).
